# Source: patent US20020142964A1 (published 2002)
# T1: human G-CSF receptor (human, UniProt Q99062 25-836)
# T1 sequence (looked up): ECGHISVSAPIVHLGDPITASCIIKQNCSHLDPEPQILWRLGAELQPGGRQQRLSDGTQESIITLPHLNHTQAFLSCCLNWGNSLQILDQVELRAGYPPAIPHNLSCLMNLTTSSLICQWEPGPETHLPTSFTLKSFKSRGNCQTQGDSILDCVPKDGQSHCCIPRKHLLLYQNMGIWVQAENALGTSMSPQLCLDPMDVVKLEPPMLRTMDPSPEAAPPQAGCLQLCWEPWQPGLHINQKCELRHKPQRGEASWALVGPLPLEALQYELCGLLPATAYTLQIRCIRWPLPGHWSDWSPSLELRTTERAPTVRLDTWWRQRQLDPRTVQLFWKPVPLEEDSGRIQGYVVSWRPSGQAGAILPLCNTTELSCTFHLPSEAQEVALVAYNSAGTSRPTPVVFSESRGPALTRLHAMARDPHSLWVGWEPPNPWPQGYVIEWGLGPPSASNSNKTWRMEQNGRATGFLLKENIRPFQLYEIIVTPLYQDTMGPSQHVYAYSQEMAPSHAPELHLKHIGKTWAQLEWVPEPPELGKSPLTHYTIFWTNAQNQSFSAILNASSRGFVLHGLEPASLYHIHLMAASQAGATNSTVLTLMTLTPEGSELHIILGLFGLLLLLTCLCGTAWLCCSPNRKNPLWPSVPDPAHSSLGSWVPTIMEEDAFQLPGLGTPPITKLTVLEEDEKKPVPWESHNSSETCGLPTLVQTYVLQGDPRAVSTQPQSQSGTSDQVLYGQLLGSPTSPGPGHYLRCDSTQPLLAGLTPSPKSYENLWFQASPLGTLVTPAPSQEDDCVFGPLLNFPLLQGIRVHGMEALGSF
# Target: T1, human G-CSF receptor
# Experiment: cell-based or functional assay
row,"EC50, luciferase reporter assay in BaF3/hGCSF-R/pfos-lux cells (Primary assay 2)",Binder
1,30 pM,non-conjugated hG-CSF (Neupogen®) (ligand) TPLGPASSLPQSFLLKCLEQVRKIQGDGAALQEKLCATYKLCHPEELVLLGHSLGIPWAPLSSCPSQALQLAGCLSQLHSGLFLYQGLLQALEGISPELGPTLDTLQLDVADFATTIWQQMEELGMAPALQPTQGAMPAFASAFQRRAGGVLVASHLQSFLEVSYRVLRHLAQP

# Target: T1, human G-CSF receptor
# Experiment: cell-based or functional assay
# Remark: another data set of the same source
row,"Specific activity (% of Neupogen®), from EC50 in luciferase reporter assay",Binder
1,120 % of Neupogen®,"Single-chain G-CSF dimer PEG5000 (ligand, SPA-PEG 5000 covalently linked to the available PEGylation sites; number and positions not stated) TPLGPASSLPQSFLLKCLEQVRKIQGDGAALQEKLCATYKLCHPEELVLLGHSLGIPWAPLSSCPSQALQLAGCLSQLHSGLFLYQGLLQALEGISPELGPTLDTLQLDVADFATTIWQQMEELGMAPALQPTQGAMPAFASAFQRRAGGVLVASHLQSFLEVSYRVLRHLAQPTPLGPASSLPQSFLLKCLEQVRKIQGDGAALQEKLCATYKLCHPEELVLLGHSLGIPWAPLSSCPSQALQLAGCLSQLHSGLFLYQGLLQALEGISPELGPTLDTLQLDVADFATTIWQQMEELGMAPALQPTQGAMPAFASAFQRRAGGVLVASHLQSFLEVSYRVLRHLAQP"
2,214 % of Neupogen®,Single-chain G-CSF dimer (ligand) TPLGPASSLPQSFLLKCLEQVRKIQGDGAALQEKLCATYKLCHPEELVLLGHSLGIPWAPLSSCPSQALQLAGCLSQLHSGLFLYQGLLQALEGISPELGPTLDTLQLDVADFATTIWQQMEELGMAPALQPTQGAMPAFASAFQRRAGGVLVASHLQSFLEVSYRVLRHLAQPTPLGPASSLPQSFLLKCLEQVRKIQGDGAALQEKLCATYKLCHPEELVLLGHSLGIPWAPLSSCPSQALQLAGCLSQLHSGLFLYQGLLQALEGISPELGPTLDTLQLDVADFATTIWQQMEELGMAPALQPTQGAMPAFASAFQRRAGGVLVASHLQSFLEVSYRVLRHLAQP
3,10 % of Neupogen®,"Single-chain G-CSF dimer (K16R K34R K40R)copy 1,2 PEG12000 (ligand, SPA-PEG 12000 covalently linked to the available PEGylation sites; number and positions not stated) TPLGPASSLPQSFLLRCLEQVRKIQGDGAALQERLCATYRLCHPEELVLLGHSLGIPWAPLSSCPSQALQLAGCLSQLHSGLFLYQGLLQALEGISPELGPTLDTLQLDVADFATTIWQQMEELGMAPALQPTQGAMPAFASAFQRRAGGVLVASHLQSFLEVSYRVLRHLAQPTPLGPASSLPQSFLLRCLEQVRKIQGDGAALQERLCATYRLCHPEELVLLGHSLGIPWAPLSSCPSQALQLAGCLSQLHSGLFLYQGLLQALEGISPELGPTLDTLQLDVADFATTIWQQMEELGMAPALQPTQGAMPAFASAFQRRAGGVLVASHLQSFLEVSYRVLRHLAQP"
4,19 % of Neupogen®,"Single-chain G-CSF dimer (K16R K34R)copy 1,2 PEG5000 (ligand, SPA-PEG 5000 covalently linked to the available PEGylation sites; number and positions not stated) TPLGPASSLPQSFLLRCLEQVRKIQGDGAALQERLCATYKLCHPEELVLLGHSLGIPWAPLSSCPSQALQLAGCLSQLHSGLFLYQGLLQALEGISPELGPTLDTLQLDVADFATTIWQQMEELGMAPALQPTQGAMPAFASAFQRRAGGVLVASHLQSFLEVSYRVLRHLAQPTPLGPASSLPQSFLLRCLEQVRKIQGDGAALQERLCATYKLCHPEELVLLGHSLGIPWAPLSSCPSQALQLAGCLSQLHSGLFLYQGLLQALEGISPELGPTLDTLQLDVADFATTIWQQMEELGMAPALQPTQGAMPAFASAFQRRAGGVLVASHLQSFLEVSYRVLRHLAQP"

# The remaining lines, values behind:
row,Binder,"Specific activity (% of Neupogen®), from EC50 in luciferase reporter assay"
1,"Single-chain G-CSF dimer (K16R K34R K40R)copy 1,2 (ligand) TPLGPASSLPQSFLLRCLEQVRKIQGDGAALQERLCATYRLCHPEELVLLGHSLGIPWAPLSSCPSQALQLAGCLSQLHSGLFLYQGLLQALEGISPELGPTLDTLQLDVADFATTIWQQMEELGMAPALQPTQGAMPAFASAFQRRAGGVLVASHLQSFLEVSYRVLRHLAQPTPLGPASSLPQSFLLRCLEQVRKIQGDGAALQERLCATYRLCHPEELVLLGHSLGIPWAPLSSCPSQALQLAGCLSQLHSGLFLYQGLLQALEGISPELGPTLDTLQLDVADFATTIWQQMEELGMAPALQPTQGAMPAFASAFQRRAGGVLVASHLQSFLEVSYRVLRHLAQP",300 % of Neupogen®
2,"Single-chain G-CSF dimer PEG20000 (ligand, SPA-PEG 20000 covalently linked to the available PEGylation sites; number and positions not stated) TPLGPASSLPQSFLLKCLEQVRKIQGDGAALQEKLCATYKLCHPEELVLLGHSLGIPWAPLSSCPSQALQLAGCLSQLHSGLFLYQGLLQALEGISPELGPTLDTLQLDVADFATTIWQQMEELGMAPALQPTQGAMPAFASAFQRRAGGVLVASHLQSFLEVSYRVLRHLAQPTPLGPASSLPQSFLLKCLEQVRKIQGDGAALQEKLCATYKLCHPEELVLLGHSLGIPWAPLSSCPSQALQLAGCLSQLHSGLFLYQGLLQALEGISPELGPTLDTLQLDVADFATTIWQQMEELGMAPALQPTQGAMPAFASAFQRRAGGVLVASHLQSFLEVSYRVLRHLAQP",25 % of Neupogen®
3,"Single-chain G-CSF dimer (K16R K34R)copy 1,2 (ligand) TPLGPASSLPQSFLLRCLEQVRKIQGDGAALQERLCATYKLCHPEELVLLGHSLGIPWAPLSSCPSQALQLAGCLSQLHSGLFLYQGLLQALEGISPELGPTLDTLQLDVADFATTIWQQMEELGMAPALQPTQGAMPAFASAFQRRAGGVLVASHLQSFLEVSYRVLRHLAQPTPLGPASSLPQSFLLRCLEQVRKIQGDGAALQERLCATYKLCHPEELVLLGHSLGIPWAPLSSCPSQALQLAGCLSQLHSGLFLYQGLLQALEGISPELGPTLDTLQLDVADFATTIWQQMEELGMAPALQPTQGAMPAFASAFQRRAGGVLVASHLQSFLEVSYRVLRHLAQP",329 % of Neupogen®
4,"Single-chain G-CSF dimer (K16R K34R K40R)copy 1,2 PEG5000 (ligand, SPA-PEG 5000 covalently linked to the available PEGylation sites; number and positions not stated) TPLGPASSLPQSFLLRCLEQVRKIQGDGAALQERLCATYRLCHPEELVLLGHSLGIPWAPLSSCPSQALQLAGCLSQLHSGLFLYQGLLQALEGISPELGPTLDTLQLDVADFATTIWQQMEELGMAPALQPTQGAMPAFASAFQRRAGGVLVASHLQSFLEVSYRVLRHLAQPTPLGPASSLPQSFLLRCLEQVRKIQGDGAALQERLCATYRLCHPEELVLLGHSLGIPWAPLSSCPSQALQLAGCLSQLHSGLFLYQGLLQALEGISPELGPTLDTLQLDVADFATTIWQQMEELGMAPALQPTQGAMPAFASAFQRRAGGVLVASHLQSFLEVSYRVLRHLAQP",10 % of Neupogen®
5,"Single-chain G-CSF dimer (K16R)copy 1,2 (ligand) TPLGPASSLPQSFLLRCLEQVRKIQGDGAALQEKLCATYKLCHPEELVLLGHSLGIPWAPLSSCPSQALQLAGCLSQLHSGLFLYQGLLQALEGISPELGPTLDTLQLDVADFATTIWQQMEELGMAPALQPTQGAMPAFASAFQRRAGGVLVASHLQSFLEVSYRVLRHLAQPTPLGPASSLPQSFLLRCLEQVRKIQGDGAALQEKLCATYKLCHPEELVLLGHSLGIPWAPLSSCPSQALQLAGCLSQLHSGLFLYQGLLQALEGISPELGPTLDTLQLDVADFATTIWQQMEELGMAPALQPTQGAMPAFASAFQRRAGGVLVASHLQSFLEVSYRVLRHLAQP",135 % of Neupogen®
6,"Single-chain G-CSF dimer (K16R K34R)copy 1,2 PEG12000 (ligand, SPA-PEG 12000 covalently linked to the available PEGylation sites; number and positions not stated) TPLGPASSLPQSFLLRCLEQVRKIQGDGAALQERLCATYKLCHPEELVLLGHSLGIPWAPLSSCPSQALQLAGCLSQLHSGLFLYQGLLQALEGISPELGPTLDTLQLDVADFATTIWQQMEELGMAPALQPTQGAMPAFASAFQRRAGGVLVASHLQSFLEVSYRVLRHLAQPTPLGPASSLPQSFLLRCLEQVRKIQGDGAALQERLCATYKLCHPEELVLLGHSLGIPWAPLSSCPSQALQLAGCLSQLHSGLFLYQGLLQALEGISPELGPTLDTLQLDVADFATTIWQQMEELGMAPALQPTQGAMPAFASAFQRRAGGVLVASHLQSFLEVSYRVLRHLAQP",8 % of Neupogen®
7,"Single-chain G-CSF dimer PEG12000 (ligand, SPA-PEG 12000 covalently linked to the available PEGylation sites; number and positions not stated) TPLGPASSLPQSFLLKCLEQVRKIQGDGAALQEKLCATYKLCHPEELVLLGHSLGIPWAPLSSCPSQALQLAGCLSQLHSGLFLYQGLLQALEGISPELGPTLDTLQLDVADFATTIWQQMEELGMAPALQPTQGAMPAFASAFQRRAGGVLVASHLQSFLEVSYRVLRHLAQPTPLGPASSLPQSFLLKCLEQVRKIQGDGAALQEKLCATYKLCHPEELVLLGHSLGIPWAPLSSCPSQALQLAGCLSQLHSGLFLYQGLLQALEGISPELGPTLDTLQLDVADFATTIWQQMEELGMAPALQPTQGAMPAFASAFQRRAGGVLVASHLQSFLEVSYRVLRHLAQP",62 % of Neupogen®
